Source: patent US9988424 (DUKE UNIVERSITY, dated 2018)
Numbering of substitutions follows the chain as printed. Read-outs that look alike come from different tables or passages of the source.

Columns and labels:
[1] = target: T1, AE.A244 V1/V2 Tags N156QN160Q (HIV-1); assay: ELISA; markers as in the legend printed on D00157
T1 chain: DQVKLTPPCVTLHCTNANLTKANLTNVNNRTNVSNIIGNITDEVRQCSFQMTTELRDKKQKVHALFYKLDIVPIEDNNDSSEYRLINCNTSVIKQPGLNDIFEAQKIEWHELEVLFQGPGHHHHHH

[2] = target: T2, gp70 C.1086 V1/V2 (HIV-1 V1V2 on murine leukemia virus gp70); assay: ELISA
T2 construct: also called C.gp70 1086C V1V2; C.1086gp70V1V2
T2 chain: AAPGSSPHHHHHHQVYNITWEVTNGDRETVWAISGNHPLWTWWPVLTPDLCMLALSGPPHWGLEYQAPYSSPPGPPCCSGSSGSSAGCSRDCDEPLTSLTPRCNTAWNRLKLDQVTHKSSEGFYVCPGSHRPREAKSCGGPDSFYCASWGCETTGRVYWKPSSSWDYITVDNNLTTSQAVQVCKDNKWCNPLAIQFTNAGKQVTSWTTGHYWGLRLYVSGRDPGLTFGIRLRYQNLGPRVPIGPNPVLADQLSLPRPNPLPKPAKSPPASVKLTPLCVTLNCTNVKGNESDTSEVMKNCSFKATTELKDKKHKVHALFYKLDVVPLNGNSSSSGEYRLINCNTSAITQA

[3] = target: Env of 703357.2.Q169KR170Q virus (HIV-1); assay: cell-based or functional assay
[4] = target: Env of 427299.c12.KL.Q169K/I181L virus (HIV-1); assay: cell-based or functional assay
[5] = target: Env of CM244NW.6.I181L virus (HIV-1); assay: cell-based or functional assay
[6] = target: Env of 703357.2.Q169KR170QI181L virus (HIV-1); assay: cell-based or functional assay
[7] = target: Env of 427299.c12 virus (HIV-1); assay: cell-based or functional assay
[8] = target: Env of 703357.2.Q169K virus (HIV-1); assay: cell-based or functional assay
[9] = target: Env of 427299.c12.H81L virus (HIV-1); assay: cell-based or functional assay
[10] = target: Env of 92TH023 K169Q virus (HIV-1); assay: cell-based or functional assay
[11] = target: Env of 703357.2.Q169KI181L virus (HIV-1); assay: cell-based or functional assay
[12] = target: Env of 703357.c02 virus (HIV-1); assay: cell-based or functional assay
[13] = target: Env of AE.92TH023 virus (HIV-1); assay: cell-based or functional assay
[14] = target: Env of 427299.c12.Q169K virus (HIV-1); assay: cell-based or functional assay
[15] = target: Env of TH023.6.I181L virus (HIV-1); assay: cell-based or functional assay
[16] = target: Env of 703357.2.I181L virus (HIV-1); assay: cell-based or functional assay
[17] = target: Env of CM244NW.4.K169Q virus (HIV-1); assay: cell-based or functional assay
[18] = target: T2, gp70 C.1086 V1/V2; assay: ELISA
[19] = target: C.CAP206 gp140CF.12 (HIV-1); assay: ELISA
[20] = target: AE.A244 V1V2 Tags (HIV-1); assay: ELISA
[21] = target: AE.A244 V1V2 Tags (HIV-1); assay: ELISA; remark: listed apart in the source
[22] = target: T3, gp70 B.CaseA2 V1/V2/V169K (HIV-1 V1V2 on murine leukemia virus gp70); assay: ELISA
T3 chain: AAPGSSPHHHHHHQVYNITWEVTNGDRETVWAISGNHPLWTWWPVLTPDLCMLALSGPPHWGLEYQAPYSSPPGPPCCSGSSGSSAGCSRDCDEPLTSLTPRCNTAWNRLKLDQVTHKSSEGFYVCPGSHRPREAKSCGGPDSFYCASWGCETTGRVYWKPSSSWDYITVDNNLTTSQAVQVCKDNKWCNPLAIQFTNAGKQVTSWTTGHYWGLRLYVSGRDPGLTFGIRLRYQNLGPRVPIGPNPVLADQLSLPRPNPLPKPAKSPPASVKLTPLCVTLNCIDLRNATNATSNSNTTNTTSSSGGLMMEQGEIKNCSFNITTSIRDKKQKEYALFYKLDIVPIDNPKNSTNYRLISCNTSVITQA

[23] = target: T4, gp70 B.CaseA2 V1/V2/V169K/E172V/E173H (HIV-1 V1V2 on murine leukemia virus gp70); assay: ELISA
T4 construct: also called gp70 B.CaseA2 V1/V2 Mut3
T4 chain: T3 chain with E332V, Y333H

[24] = target: AE.A244 V1V2 Tags (HIV-1); assay: ELISA; remark: listed apart in the source
[25] = target: T5, AE.A244 gp120 delta 11 (HIV-1); assay: ELISA
T5 construct: also called E.A244gp120Δ11; AE.A244 Δ11 gp120

[26] = target: C.1086 V1V2 Tags (HIV-1); assay: ELISA
[27] = target: T5, AE.A244 gp120 delta 11; assay: ELISA; remark: listed apart in the source
[28] = target: C.1086 V1V2 Tags (HIV-1); assay: ELISA; remark: listed apart in the source

B1: PG9 reverted unmutated ancestor antibody (antibody, V domains shown)
VH: QVQLVESGGGVVQPGRSLRLSCAASGFTFSSYGMHWVRQAPGKGLEWVAVISYDGSNKYYADSVKGRFTISRDNSKNTLYLQMNSLRAEDTAVYYCAREAGGPDYRNGYNYYDFWSGYYNYYYMDVWGKGTTVTVSS
VL: QSALTQPASVSGSPGQSITISCTGTSSDVGSYNLVSWYQQHPGKAPKLMIYEVSKRPSGVSNRFSGSKSGNTASLTISGLQAEDEADYYCCSLTSTRRWVFGGGTKLTVL
notes: also called PG9 RUA; PG9_RUA
binding result [1]: no binding (tested: 100 ug/ml)

B2: PG16 reverted unmutated ancestor antibody (antibody, V domains shown)
VH: B1 VH with D104I, Y105W, R106H, N107D, G108D, Y109V, N110K, W115N, S116D, N120Y
VL: B1 VL with S95D, T96R, R97S, R98H, W99R, V100I
notes: also called PG16 RUA; PG16_RUA
binding result [1]: no binding (tested: 100 ug/ml)

B3: CH58 reverted unmutated ancestor antibody (antibody, V domains shown)
VH: EVQLVQSGAEVKKPGESLKISCKGSGYSFTSYWIGWVRQMPGKGLEWMGIIYPGDSDTRYSPSFQGQVTISADKSISTAYLQWSSLKASDTAMYYCARLGGRYYYDSSGYYYFDYWGQGTLVTVSS
VL: NFMLTQPHSVSESPGKTVTISCTRSSGSIASNYVQWYQQRPGSSPTTVIYEDNQRPSGVPDRFSGSIDSSSNSASLTISGLKTEDEADYYCQSYDSSSWVFGGGTKLTVL
notes: also called CH58 RUA; CH58_RUA
EC50 [2]: > 66.7 nM | ID50 assayed in TZM-bl cells, 703357.2.Q169KR170Q [3]: > 50 µg/mL | ID50 assayed in TZM-bl cells, 427299.c12.KL.Q169K/I181L [4]: > 50 µg/mL | ID50 assayed in TZM-bl cells, CM244NW.6.I181L [5]: > 50 µg/mL | ID50 assayed in TZM-bl cells, 703357.2.Q169KR170QI181L [6]: > 50 µg/mL | ID50 assayed in TZM-bl cells, 427299.c12 [7]: > 50 µg/mL | ID50 assayed in TZM-bl cells, 703357.2.Q169K [8]: > 50 µg/mL | ID50 assayed in TZM-bl cells, 427299.c12.H81L [9]: > 50 µg/mL | ID50 assayed in TZM-bl cells, TH023.6.K169Q [10]: > 50 µg/mL | ID50 assayed in TZM-bl cells, 703357.2.Q169KI181L [11]: > 50 µg/mL | ID50 assayed in TZM-bl cells, 703357.c02 [12]: > 50 µg/mL | ID50 assayed in TZM-bl cells, TH023.6 [13]: > 50 µg/mL | ID50 assayed in TZM-bl cells, 427299.c12.Q169K [14]: > 50 µg/mL | ID50 assayed in TZM-bl cells, TH023.6.I181L [15]: > 50 µg/mL | ID50 assayed in TZM-bl cells, 703357.2.I181L [16]: > 50 µg/mL | ID50 assayed in TZM-bl cells, CM244NW.4.K169Q [17]: > 50 µg/mL | EC50 [18]: > 66.7 nM

B4: PG16 (antibody, V domains shown)
VH: QEQLVESGGGVVQPGGSLRLSCLASGFTFHKYGMHWVRQAPGKGLEWVALISDDGMRKYHSDSMWGRVTISRDNSKNTLYLQFSSLKVEDTAMFFCAREAGGPIWHDDVKYYDFNDGYYNYHYMDVWGKGTTVTVSS
VL: QSALTQPASVSGSPGQTITISCNGTSSDVGGFDSVSWYQQSPGKAPKVMVFDVSHRPSGISNRFSGSKSGNTASLTISGLHIEDEGDYFCSSLTDRSHRIFGGGTKVTVL
notes: also called mAb PG16; bnAb PG16
EC50 [19]: 16 nM | EC50 [20]: 3.7 nM | EC50 [21]: 3.7 nM | binding result [22]: no binding | binding result [23]: no binding | EC50 [24]: 5.6 nM

B5: CH59 reverted unmutated ancestor antibody (antibody, V domains shown)
VH: EVQLVESGGGLVQPGRSLRLSCAASGFTFDDYAMHWVRQAPGKGLEWVSGISWNSGSIGYADSVKGRFTISRDNAKNSLYLQMNSLRAEDTALYYCAKDSPRGELPFDYWGQGTLVTVSS
VL: SYELTQPPSVSVSPGQTARITCSGDALPKKYAYWYQQKSGQAPVLVIYEDSKRPSGIPERFSGSSSGTMATLTISGAQVEDEADYYCYSTDSSGNHRVFGGGTKLTVL
notes: also called CH59 RUA; CH59_RUA
EC50 (read off the curve) [1]: ~0.4 µg/mL | EC50 [25]: 15.5 nM | EC50 [20]: 0.13 nM | EC50 [2]: 11.3 nM | EC50 [26]: 50.1 nM | ID50 assayed in TZM-bl cells, 703357.2.Q169KR170Q [3]: > 50 µg/mL | ID50 assayed in TZM-bl cells, 427299.c12.KL.Q169K/I181L [4]: > 50 µg/mL | ID50 assayed in TZM-bl cells, CM244NW.6.I181L [5]: > 50 µg/mL | ID50 assayed in TZM-bl cells, 703357.2.Q169KR170QI181L [6]: > 50 µg/mL | ID50 assayed in TZM-bl cells, 427299.c12 [7]: > 50 µg/mL | ID50 assayed in TZM-bl cells, 703357.2.Q169K [8]: > 50 µg/mL | ID50 assayed in TZM-bl cells, 427299.c12.H81L [9]: > 50 µg/mL | ID50 assayed in TZM-bl cells, TH023.6.K169Q [10]: > 50 µg/mL | ID50 assayed in TZM-bl cells, 703357.2.Q169KI181L [11]: > 50 µg/mL | ID50 assayed in TZM-bl cells, 703357.c02 [12]: > 50 µg/mL | ID50 assayed in TZM-bl cells, TH023.6 [13]: > 50 µg/mL | ID50 assayed in TZM-bl cells, 427299.c12.Q169K [14]: > 50 µg/mL | ID50 assayed in TZM-bl cells, TH023.6.I181L [15]: > 50 µg/mL | ID50 assayed in TZM-bl cells, 703357.2.I181L [16]: > 50 µg/mL | ID50 assayed in TZM-bl cells, CM244NW.4.K169Q [17]: > 50 µg/mL | EC50 [27]: 15.5 nM | EC50 [21]: 0.13 nM | EC50 [18]: 11.3 nM | EC50 [28]: 50.1 nM

B6: 697D (antibody, V domains shown)
VH: QVQLVQSGAEVKKPGSSVKVSCKASGGNFNTYTISWVRQAPGQGLEWMGRIIPIFGIVNPAQKFPGRVTINVDKSTNTAYMELSSLRSEDTAVYYCATSGVGLHFGYFDYWGQGTQVTVSS
VL: QSVLTQPPSVSGAPGQRVTISCTGSSSNIGAHYDVHWYQQLPGTAPKLLIYGNSNRPSGVPDRFSGSKSGTSASLAITGLQAEDEADYYCQSYDSSLSGYVFGTGTKVTVL
notes: also called mAb 697D; V2 conformational mAb 697D
EC50 [19]: 0.1 nM | EC50 [25]: 0.23 nM | EC50 [20]: 0.1 nM | EC50 [2]: 0.067 nM | EC50 [26]: 0.23 nM | EC50 [27]: 0.23 nM | EC50 [21]: 0.1 nM | EC50 [18]: 0.067 nM | EC50 [28]: 0.23 nM | EC50 [22]: 0.14 µg/mL | EC50 [23]: 0.04 µg/mL | EC50 [24]: 0.6 nM

B7: 697D reverted unmutated ancestor antibody (antibody, V domains shown)
VH: QVQLVQSGAEVKKPGSSVKVSCKASGGTFSSYTISWVRQAPGQGLEWMGRIIPILGIANYAQKFQGRVTITADKSTSTAYMELSSLRSEDTAVYYCATSGVGLHFGYFDYWGQGTLVTVSS
VL: B6 VL with H32G
notes: also called 697D RUA
EC50 [25]: > 667 nM | EC50 [27]: > 667 nM
